Measurements as given in publication PMC7393678, “First Evidence of Acyl-Hydrolase/Lipase Activity From Human Probiotic Bacteria: Lactobacillus rhamnosus GG and Bifidobacterium longum NCC 2705” (Frontiers in Microbiology, 2020).

B1: BlLyp (Bifidobacterium longum NCC2705) (protein)
chain: PPDNRRVSRLIRHTGKGLSGSFPFCSCRSWAKVGVFALPNPPLKGPVVMPINEALFAAMKAASYIKPNAGKSYKLQRVAEELIAKQAPANPKCRVEDAFAPMADGYAVPLRVFTPLVAYGAPLPEALEESSANGTPVASAISAILPAVLPKVLPKILIKESTSSGNADGISGNANTELPSVTPRGTILFFHGGGWTTGGINLYTQACAHMAVRLQRRVISVEYRLAPEYRFPTAVEDCYEVARQLFAGELPISGVGGSVDVDHPQSAAPTAPAGGGDISATIPAPDPDSIVLFGDSAGGNLAAAVSLMARDRGEFMPRTQMLLYPVVGNDYNPETSPFESVRTNGTDYILTAQDMADYIDMYRSSVADLTNPYFAPLTAHDLSNQPRTLVLSAEYCPLRDEDEAYARRLQLVNDNVSCYRIHDGIHGYLLNTSAVGLVATTYRIIEHFLDGTPLEPAPGTGTTANAPEGGDAWQDVLGTD
notes: C-terminal His6 (pET21b); E. coli; monomer at pH 7

Experiments:
LrLyp [1] = test system: T1, LrLyp; experiment: p-nitrophenol release at […] nm, initial rates, substrate inhibition model; type: biochemical, Lacticaseibacillus rhamnosus; conditions: substrate inhibition constant, second site; pH 7, 37°C, 20 mM McIlvaine buffer, substrate 0.1-9 mM
T1 construct: C-terminal His6 (pET21b); E. coli; probably monomer

LrLyp [2] = test system: T1, LrLyp; experiment: as above; type: biochemical, Lacticaseibacillus rhamnosus; conditions: pH 7, 37°C, 20 mM McIlvaine buffer, substrate 0.1-9 mM from DMSO/Triton X-100 stock; apparent constant from substrate inhibition fit; read-out: KMapp
purified protein = substrate: CCCCCCCCCCCC(=O)Oc1ccc([N+](=O)[O-])cc1; experiment: purified protein; type: biochemical, Bifidobacterium longum; conditions: pH 7, 37°C, 20 mM McIlvaine buffer, substrate 0.1-9 mM from DMSO/Triton X-100 stock, apparent constant

| Molecule | KIapp (LrLyp [1]) | Km (LrLyp [2]) | Km (purified protein) | Vmax (purified protein) | kcat (purified protein) | kcat/Km (purified protein) |
| --- | --- | --- | --- | --- | --- | --- |
| CCCCCCCCCCCC(=O)Oc1ccc([N+](=O)[O-])cc1 [pNP-laurate] | 1.57 mM | 11.4 mM |  |  |  |  |
| B1 |  |  | 2.56 mM | 0.05 µmol/min/mg | 0.04 s⁻¹ | 16 M⁻¹ s⁻¹ |
